Drawing on paper PMC9170038, this text covers Kd for 23 molecules.

In data set [1] the test system is Theophylline aptamer, RNA-MaP condition construct (RNA, aptamer) GGAAAGGCGAGGAUACCAGCGUUCGCGCCCUUGGCAGCCUCGCCAAAGAAACAACAACAACAAC
Description: DMS chemical mapping. Particulars: 80 mM KCl, 4 mM MgCl2; 100 mM Tris-HCl, pH 7.5, 37 °C.

In data set [2] the test system is Theophylline aptamer, Light-up construct (RNA, aptamer) GGGAACGUCUCCGAGUAGGAGACGAAGGGAGAGUGGCAGCUUACAACCUGAAGGACGGGUCCCCAGUAAUAAUGAUACCAGGAACAAAAGUUCCCCUUGGCAGCAUCUGGGUUGAGUAGAGUGUGAGCAGGAAGUGGGCUGUUGCUUUUCCAAGCUUAUCGAGUAGAUAAGCAAAAAGAAACAACAACAACAAC
In words: DMS chemical mapping. Particulars: 5 mM MgCl2, 1x PBS, pH 6.1, 24 °C.

The target of data set [3] is T1, MS2 coat protein, dlFG mutant (Escherichia phage MS2, UniProt P03612, del68-81insG). In words: 4 mM Mg2+; no ligand; RNA-MaP array; 100 mM Tris-HCl pH 7.5, 80 mM KCl, 4 mM MgCl2, 0.1 mg/mL BSA, 1 mM DTT, 0.01 mg/mL yeast tRNA, 0.01% Tween-20; protein 1.5 nM to 3 uM; 37 C (Table S3). Particulars: chain copies: 2; label: tethered by stalled RNA polymerase.
Data set [4] addresses T1, MS2 coat protein, dlFG mutant. In words: 4 mM Mg2+; L-tryptophan 2.4 mM; RNA-MaP array; 100 mM Tris-HCl pH 7.5, 80 mM KCl, 4 mM MgCl2, 0.1 mg/mL BSA, 1 mM DTT, 0.01 mg/mL yeast tRNA, 0.01% Tween-20; protein 1.5 nM to 3 uM; 37 C (Table S3). Particulars: chain copies: 2; label: tethered by stalled RNA polymerase.
Data set [5] shares this target. Description: 4 mM Mg2+; miR-208a RNA 100 nM (AU…UUGU); RNA-MaP array; 100 mM Tris-HCl pH 7.5, 80 mM KCl, 4 mM MgCl2, 0.1 mg/mL BSA, 1 mM DTT, 0.01 mg/mL yeast tRNA, 0.01% Tween-20; protein 1.5 nM to 3 uM; 37 C (Table S3). Particulars: chain copies: 2; label: tethered by stalled RNA polymerase.
Data set [6] shares this target. In words: 4 mM Mg2+; FMN 200 uM; RNA-MaP array; 100 mM Tris-HCl pH 7.5, 80 mM KCl, 4 mM MgCl2, 0.1 mg/mL BSA, 1 mM DTT, 0.01 mg/mL yeast tRNA, 0.01% Tween-20; protein 1.5 nM to 3 uM; 37 C (Table S3). Particulars: chain copies: 2; label: tethered by stalled RNA polymerase.
The target is the same in data set [7]. In words: 4 mM Mg2+; theophylline 2 mM; RNA-MaP array; 100 mM Tris-HCl pH 7.5, 80 mM KCl, 4 mM MgCl2, 0.1 mg/mL BSA, 1 mM DTT, 0.01 mg/mL yeast tRNA, 0.01% Tween-20; protein 1.5 nM to 3 uM; 37 C (Table S3). The conditions noted are these: chain copies: 2; label: tethered by stalled RNA polymerase.

For the molecule `Cn1c(=O)c2[nH]cnc2n(C)c1=O`, the results for the Kd in data set [1] and in data set [2] were 13.11 ± 9.21/-4.86 μM and 239.54 ± 161.15/-96.27 μM, respectively.

B1: Eterna 7724662 (Same State - FMN B) (ssRNA)
RNA: GUAUCGCUAGGAGGAUAUUUCAAAUAACAAAUAAAUGGUUAUACGGAGUGAUGUUCCGAUUUACGGAAAGAAGGCCUAGUGAUAC
For B1, the dissociation constant (Kd) in data set [3] was over 3000 nM.

B2: Eterna 5958224 (Same State NG 3) (ssRNA)
RNA: CGAGGCGUACAUGAGGAUCACCCAUGUACCUAACAACAAAGCAAGGAUAUCCUGGCUAUAAUACAGGAGAAGGUGUGGUCCUUA
Regarding B2, the affinity in data set [3], expressed as Kd, was 135 nM. This counts as sub-micromolar.

B3: Eterna 6002686 (Brourd's mod of Exclusion 4) (ssRNA)
RNA: UAACAAAUUGUCAGGAUAUCAGUCCCGGCCCAGAUUGAGAAGGGACAUGAGGAUCACCCAUGUAUGAUUCUCAG
Take B3: the affinity in data set [3], expressed as Kd, was 93.5 nM.

B4: Eterna 1282 (Exclusion - Tryptophan B) (ssRNA)
RNA: GGAUUGCGUUCGGCCGCCACUAGACUACAUUCCACGCCCGACCCGUUUUUAAGUGAUGUUUAAACUAGGACCGGGAACCGAUUUC
Consider B4, for which the Kd in data set [3] was over 3000 nM.

B5: Eterna 7733368 (Same State - Tryptophan B) (ssRNA)
RNA: GGGUACAUCGCGGCCGCCACUUAUGUAAAUACAUGAGGAUCACCCAUGUCGAUGGAGACAUCGGUAAGGACCGGGUGAUGUACCG
Take B5: in data set [4], the Kd turned out to be 19.3 nM.

B6: Eterna 7730944 (Same State - Tryptophan A) (ssRNA)
RNA: UAAAACGCUUGAAUAACAAGCGAAAAUUCGCGAGGACCGGUACGGCCGCCACUCGCUAACUGCGAGUGAUGUUCGAUAAUAAAAU
For the molecule B6, the Kd in data set [3] was over 3000 nM.

B7: Eterna 7747481 (Same State - Arginine B) (ssRNA)
RNA: GCCGUAGAUUGAAGGAGCGACAUAAACGAUGUUCUGGUAGUGAUGUUACCUUAGCAGGCAUGUCAGGUAGGUCGCAAUCUACGGC
For the molecule B7, the equilibrium dissociation constant (Kd) in data set [3] was over 3000 nM.

B8: Eterna 7727988 (Exclusion - Theophylline B) (ssRNA)
RNA: GGGAACUCUUACGAUACCAGCCGGAGUGAUGUUCCGCGCUUGGACGUAGUAACCCGCACCGGCCCUUGGCAGCGUGGAUCUUAUA
B8 displayed a Kd in data set [3] of over 3000 nM.

B9: Eterna 13224 (Sensor for hsa-mir-208a) (ssRNA)
RNA: ACCCAAAGUAUAUGGGAACAAGCUUUUUAACAUGAGGAUCACCCAUGUGCUCGUCUUAUAAGCAGUCGAAAGACUGC
On to B9, for which the Kd in data set [5] came to 17.1 nM.

B10: Eterna 6063666 (Exclusion 4) (ssRNA)
RNA: UAUGUGUCAGGAUAUUGUUAAUUUAGUUGUUUGUAUUAGUUCGAGAAGGGACAUGAGGAUCACCCAUGUUGUUU
In data set [6], B10 had a Kd of 31.1 nM. This counts as double-digit nanomolar.

B11: Eterna 6108893 (Exclusion NG 1) (ssRNA)
RNA: GCGUAAAAUGUAGGAUAUGACACAGGAAACUGGUCAGAAGGACAUGAGGAUCACCCAUGUAAAAUGUUCAAGAAUAACUCAUGC
B11: binding in data set [3] was put at a Kd of 123 nM.

B12: Eterna 5956827 (Exclusion NG 2) (ssRNA)
RNA: UUUGUUUUGCAAGGAUAUGUUUAAUUUUAGUUUCCUUACACAUGAGGAUCACCCAUGUUAUACUUACAGAAGGUGCGUAAUUUU
B12 showed a Kd in data set [6] of 94 nM.

B13: Eterna 7684615 (Exclusion - Tryptophan A) (ssRNA)
RNA: AAAAUUGCGGUCGAUAGAACUUUUUGCUUACGAGGACCGGUACGGCCGCCACUCGAGUCAAGUGAUGUUUGAUUUUCUAUUAUUA
As to B13, the Kd in data set [3] is over 3000 nM.

B14: Eterna 6457817 (Inverted Small Loop Same State NG 3) (ssRNA)
RNA: GCGUAAUAGGUGUAGCUAGUCGUUCAAGAAGGGUGAAGAACAUGAGGAUCACCCAUGUGGUCUAUACAGGAUAUUGAUAUACGC
For B14, the Kd in data set [3] was found to be 607 nM. This counts as sub-micromolar.

B15: Eterna 7681766 (Exclusion - Tryptophan A) (ssRNA)
RNA: UGUGAACAAAAGUAGAGUGGACCACUAUAGCGAGGACCGGUACGGCCGCCACUCGUAUAUAAAUUCAGUGAUGUUGAAAAGAGCU
In data set [3], B15 showed a Kd of over 3000 nM.

B16: Eterna 7691696 (Same State - Theophylline B) (ssRNA)
RNA: UGUCAUUGGUCUGAUACCAGAAGAUAAUCUGGAGUGAUGUUCCAAGUACGACAAAGUCGCUUCCCUUGGCAGCAGACCGAUGACU
With B16, in data set [3], the Kd was over 3000 nM.

B17: Eterna 7623315 (Exclusion - Theophylline A) (ssRNA)
RNA: AUUAUCAUGGUCAUAUAUAUUUCGUCAGAUACCAGACUAGAUAUAGUCCCUUGGCAGCUGUUACAUGAGGAUCACCCAUGUUAUA
B17 registered a Kd in data set [7] of 45.8 nM. This counts as double-digit nanomolar.

B18: Eterna 11920 (Sensor v3, turn-off variant 2) (ssRNA)
RNA: UUUAAACUUACAAUCUUCGCUGGCAUGCUUGUGCCAGCUACAUGAGGAUCACCCAUGUUUUUUGCUCGUCUUAUUCU
In the case of B18, in data set [5], the affinity, expressed as Kd, was 95 nM.

B19: Eterna 7612216 (Same State - Tryptophan B) (ssRNA)
RNA: GCUAGGUCAUCGGCCGCCACUAACGACGGUUCCAACAUGAGGAUCACCCAUGUGCCACAUGCGCAUAGGACCGGGAUGACCUAGC
As for B19, binding in data set [4] was put at a Kd of 21 nM.

B20: Eterna 7684249 (Exclusion - Tryptophan B) (ssRNA)
RNA: UUUAUAAUGUCGGCCGCCACUGGAUUAAUAUUUGUAUAAUCUAGUUCUGAGUGAUGUUUAGAGUCCAGGACCGGGACAUUUGUUA
In turn, B20 returned an equilibrium dissociation constant (Kd) in data set [3] of over 3000 nM.

B21: Eterna 6136258 (Same State NG 2) (ssRNA)
RNA: UAAUCUCAGAUAGGAUAUAUAGGAUAACUUAAGACCUAACAUGAGGAUCACCCAUGUGAUUAUUCGUAGAAGGAUCAUUGACCC
Molecule B21 yielded a Kd in data set [3] of 162 nM.

B22: Eterna 7672552 (Same State - Tryptophan A) (ssRNA)
RNA: UAAGAAUAAGUAGCAGUGAUGUUGCUACUACGAGGACCGGUACGGCCGCCACUCGAGUCCUCGAAACAUCACUGAACGAGGAAUA
For B22, in data set [3], the equilibrium dissociation constant (Kd) was over 3000 nM.
